Measurements taken from publication PMC2650008.

Target: T1, PpPutA45 (Pseudomonas putida, UniProt Q9R9T7 1-45)
T1 chain: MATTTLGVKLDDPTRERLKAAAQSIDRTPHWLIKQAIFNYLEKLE
Assay: EMSA

B1: O2-12 (dsDNA)
DNA 1: GCGGTTGCACCT
DNA 2: AGGTGCAACCGC
binding result: no binding
